± gives the half width of the 95% confidence interval.
Assays:
[1] = folding stability dG unfold from trypsin proteolysis; higher = more stable
Summary of the method: (§1)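 Mini-proteins designed to be under 80 residues and free of cysteine were carried in a PA-tagged cDNA display construct and digested with trypsin and with chymotrypsin. Each protease was applied at 11 threefold-diluted concentrations, alongside a no-protease condition, before sequencing. K50 came from Bayesian fitting of the sequencing counts, and unfolding free energy was obtained by comparing it with a sequence-predicted unfolded-state K50 and a shared folded-state K50, for each protease separately or for both together. Designs were retained only if their AlphaFold2 dimer inter-PAE exceeded 15.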

[2] = folding stability dG unfold (combined trypsin and chymotrypsin); higher = more stable
Summary of the method: as §1

[3] = folding stability dG unfold from chymotrypsin proteolysis; higher = more stable
Summary of the method: as §1

| Sequence | folding stability dG unfold [1] | folding stability dG unfold [2] | folding stability dG unfold [3] |
| --- | --- | --- | --- |
| SAGGSMVEVIVIDKDGKEHKILIPPELKPEEVAEKVKKFLEDEGYEVESIEIEELPEGFSKVIVNASAGGSA [r2_148_TrMRF] | 2.05 ± 0.078 kcal/mol | 1.68 ± 0.21 kcal/mol | 1.45 ± 0.18 kcal/mol |
| SAGGSMVKLKVTSVSREGNYLTVTAELGNLIVEIRFDEGTDRFEVKVSEKPLVLGEEEIEELAKASSAGGSA [r2_482_TrMRF] | 1.52 ± 0.064 kcal/mol | 2.08 ± 0.072 kcal/mol | 2.38 ± 0.043 kcal/mol |
| SAGGSMVVTVSTDSTSEPTTVITITIPPELGNLTDEEKKAIAEEIAKKYPNTKFTFTPTTITITRKSAGGSA [r2_256_JUSTAS] | 1.77 ± 0.047 kcal/mol | 2.37 ± 0.23 kcal/mol | 2.81 ± 0.054 kcal/mol |
| SAGGSMVVVVKLKDGKKIELSVEELKKLAEELGLEPEEEDKEERLERIAKALAEKLGLEVEKVEVLSAGGSA [r2_83_TrROS_Hall] | 4.09 ± 0.29 kcal/mol | 3.33 ± 0.35 kcal/mol | 2.74 ± 0.22 kcal/mol |
| SAGGSNFKPLEAEIYRNPDGKDVVQIMITFPDPNGKPFTVNIWIYPDGKIKISVYYNGKKEEIEIPSAGGSA [r2_182_TrROS] | 1.95 ± 0.13 kcal/mol | 2.96 ± 0.18 kcal/mol | 3.57 ± 0.12 kcal/mol |
| SAGGSPEEIANEVKEKILKELPPGVKVEVSVEVTPEGATVTVKVPEGKEYTVKVEGDKIVEIKLLKKSAGGS [r8_287_JUSTAS] | 0.921 ± 0.081 kcal/mol | 1.51 ± 0.28 kcal/mol | 1.92 ± 0.057 kcal/mol |
| SAGGSPERSAEELAEELAERIRELLREEAASFELPLHVHIVVPDPEGRRREFDVEVHVRVEVPEDARSAGGS [r16_550_TrMRF] | 0.898 ± 0.025 kcal/mol | 1.05 ± 0.054 kcal/mol | 1.14 ± 0.034 kcal/mol |
| SAGGSPETKTISFKYPGNGMRIMVQVERDPADGKKKITINMENNPYMAERAKKALEELGLPVEIHPSAGGSA [r2_30_TrROS] | 1.38 ± 0.13 kcal/mol | 1.32 ± 0.12 kcal/mol | 1.14 ± 0.12 kcal/mol |
| SAGGSPIISTEKSSSGVTTITFPDGTVVTEVTTPLPDGTVLTTTTVTPPNAPVSTTTTTDPVPPGLPSAGGS [r16_211_JUSTAS] | 0.775 ± 0.062 kcal/mol | 0.767 ± 0.062 kcal/mol | 0.702 ± 0.027 kcal/mol |
| SAGGSPLLVLHIRLRRPGEEREIVIPSDLIEDMPLEEIEEILRALPWIDEAEIELEEFPPLRPDELSAGGSA [r2_282_TrMRF] | 1.21 ± 0.026 kcal/mol | 1.67 ± 0.089 kcal/mol | 1.98 ± 0.11 kcal/mol |
| SAGGSPNFRIHIEGPEGKTLQYPVDPGFNKPDIQDWLQELGNIEIDQHPNDGWITIRIPKDALDQFSAGGSA [r2_164_TrROS] | 0.226 ± 0.12 kcal/mol | 0.161 ± 0.27 kcal/mol | 0.0882 ± 0.21 kcal/mol |
| SAGGSPNIKITSKEKEGSKLKYTIQTPDKTITIEYSEGKATFKFPDGSTKTLTGKGSLEKAIKEAVLSSAGG [r13_98_JUSTAS] | 0.936 ± 0.11 kcal/mol | 1.59 ± 0.2 kcal/mol | 1.99 ± 0.25 kcal/mol |
| SAGGSPPDKWVTLPFTMRYPDNGLEVEVNIVINPDDGKIQVEMEVYDNGKPKQEVPATIPADEIKLSAGGSA [r2_188_TrROS] | 0.639 ± 0.035 kcal/mol | 0.699 ± 0.13 kcal/mol | 0.594 ± 0.23 kcal/mol |
| SAGGSPPNITYELTFPDGTVYTDPLPGKSLEELKEYVKSLNFTNVEVTVYEESSEVSTYKVTIPPNESAGGS [r16_700_JUSTAS] | 0.169 ± 0.079 kcal/mol | 0.437 ± 0.12 kcal/mol | 0.57 ± 0.13 kcal/mol |
| SAGGSPSTVVPTLLTLEIVKKDEKGNETSETIPVLVEDSPEEARERLIEEIEKKYGAEVVKVTVKPESAGGS [r16_511_JUSTAS] | -0.576 ± 0.07 kcal/mol | -0.608 ± 0.18 kcal/mol | -1.22 ± 0.27 kcal/mol |

Reference: the supplement of paper PMC12764529
